T1: IFN regulatory factor 3 (IRF3) (mouse (endogenous in peritoneal macrophages, RAW264.7, L929, MEFs)), P70671
T1 chain: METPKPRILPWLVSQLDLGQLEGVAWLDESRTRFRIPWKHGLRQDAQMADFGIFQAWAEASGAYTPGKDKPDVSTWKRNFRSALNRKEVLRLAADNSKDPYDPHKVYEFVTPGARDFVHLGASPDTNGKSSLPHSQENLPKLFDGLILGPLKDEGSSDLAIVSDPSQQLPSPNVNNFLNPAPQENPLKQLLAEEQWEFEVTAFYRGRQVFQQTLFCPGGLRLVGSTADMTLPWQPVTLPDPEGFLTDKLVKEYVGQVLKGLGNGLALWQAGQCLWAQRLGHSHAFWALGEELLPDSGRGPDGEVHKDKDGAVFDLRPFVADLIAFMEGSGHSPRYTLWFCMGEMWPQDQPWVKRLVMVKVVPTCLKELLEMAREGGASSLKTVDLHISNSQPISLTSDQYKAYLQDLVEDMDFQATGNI

B1: IFN regulatory factor 3 (IRF3), P70671 1-419 (natural protein)
chain: T1 chain
B2: stimulator of interferon genes (STING) (natural protein)
chain: MPYSNLHPAIPRPRGHRSKYVALIFLVASLMILWVAKDPPNHTLKYLALHLASHELGLLLKNLCCLAEELCHVQSRYQGSYWKAVRACLGCPIHCMAMILLSSYFYFLQNTADIYLSWMFGLLVLYKSLSMLLGLQSLTPAEVSAVCEEKKLNVAHGLAWSYYIGYLRLILPGLQARIRMFNQLHNNMLSGAGSRRLYILFPLDCGVPDNLSVVDPNIRFRDMLPQQNIDRAGIKNRVYSNSVYEILENGQPAGVCILEYATPLQTLFAMSQDAKAGFSREDRLEQAKLFCRTLEEILEDVPESRNNCRLIVYQEPTDGNSFSLSQEVLRHIRQEEKEEVTMNAPMTSVAPPPSVLSQEPRLLISGMDQPLPLRTDLI

Experiments:
[1] = molecular target: T1, IFN regulatory factor 3 (IRF3) (mouse …); experiment: native gel or EMSA; conditions: remark: other sources report otherwise
native gel or EMSA = molecular target: the molecule itself; experiment: native gel or EMSA

Row | Binder | stoichiometry N [1] | stoichiometry N (native gel or EMSA)
1 | B1 | 2 | 
2 | B2 |  | 2
